Legend:
[1] = target: His-Hsp70 (Heat Shock Protein 70) (UniProt P0DMV8); experiment: BLI; conditions: 25 mM HEPES, 5 mM MgCl2, 300 mM KCl, pH 7.4 (BLI) or 7.5 (SELEX), 24 °C, plate assay washes with 1% BSA
[2] = tested on: His-SUMO; experiment: BLI; conditions: all A are 7-phenylbutyl-7-deaza-dA (A*); 25 mM HEPES, 5 mM MgCl2, 300 mM KCl, pH 7.4 (BLI) or 7.5 (SELEX), 24 °C; plate assay washes with 1% BSA, 0.05% Tween …; aptamers folded 95 °C 5 min then cooled
[3] = tested on: His-NPA (N-terminus of RNA polymerase subunit PA) (Influenza A); experiment: BLI; conditions: all A are 7-phenylbutyl-7-deaza-dA (A*); 25 mM HEPES, 5 mM MgCl2, 300 mM KCl, pH 7.4 (BLI) or 7.5 (SELEX), 24 °C; plate assay washes with 1% BSA, 0.05% Tween …; aptamers folded 95 °C 5 min then cooled
[4] = target: SBP-Hsp70 (UniProt P0DMV8); experiment: BLI; conditions: all A are 7-phenylbutyl-7-deaza-dA (A*); 25 mM HEPES, 5 mM MgCl2, 300 mM KCl, pH 7.4 (BLI) or 7.5 (SELEX), 24 °C; plate assay washes with 1% BSA, 0.05% Tween …; aptamers folded 95 °C 5 min then cooled
[5] = tested on: His-CPA (C-terminus of RNA polymerase subunit PA) (Influenza A); experiment: BLI; conditions: all A are 7-phenylbutyl-7-deaza-dA (A*); 25 mM HEPES, 5 mM MgCl2, 300 mM KCl, pH 7.4 (BLI) or 7.5 (SELEX), 24 °C; plate assay washes with 1% BSA, 0.05% Tween …; aptamers folded 95 °C 5 min then cooled
[6] = target: His-Hsp70 (Heat Shock Protein 70) (UniProt P0DMV8); experiment: fluorescence plate binding assay; conditions: 25 mM HEPES, 5 mM MgCl2, 300 mM KCl, pH 7.4 (BLI) or 7.5 (SELEX), 24 °C, plate assay washes with 1% BSA
[7] = tested on: His-SUMO; experiment: fluorescence plate binding assay; conditions: all A are 7-phenylbutyl-7-deaza-dA (A*); 25 mM HEPES, 5 mM MgCl2, 300 mM KCl, pH 7.4 (BLI) or 7.5 (SELEX), 24 °C; plate assay washes with 1% BSA, 0.05% Tween …; aptamers folded 95 °C 5 min then cooled
[8] = tested on: His-NPA (N-terminus of RNA polymerase subunit PA) (Influenza A); experiment: fluorescence plate binding assay; conditions: all A are 7-phenylbutyl-7-deaza-dA (A*); 25 mM HEPES, 5 mM MgCl2, 300 mM KCl, pH 7.4 (BLI) or 7.5 (SELEX), 24 °C; plate assay washes with 1% BSA, 0.05% Tween …; aptamers folded 95 °C 5 min then cooled
[9] = tested on: His-CPA (C-terminus of RNA polymerase subunit PA) (Influenza A); experiment: fluorescence plate binding assay; conditions: all A are 7-phenylbutyl-7-deaza-dA (A*); 25 mM HEPES, 5 mM MgCl2, 300 mM KCl, pH 7.4 (BLI) or 7.5 (SELEX), 24 °C; plate assay washes with 1% BSA, 0.05% Tween …; aptamers folded 95 °C 5 min then cooled
[10] = all A are 7-phenylbutyl-7-deaza-dA (A*), 0.05% Tween …, aptamers folded 95 °C 5 min then cooled
[11] = none (natural dA), 0.05% Tween 20, aptamers folded 95 °C 5 min then …
[12] = all A after nt 19 are 7-phenylbutyl-7-deaza-dA (A*), 0.05% Tween 20, aptamers folded 95 °C 5 min then …
[13] = A after nt 19 are 7-phenylbutyl-7-deaza-dA (A*), 0.05% Tween 20, aptamers folded 95 °C 5 min then …

Q: For “AGACCTCATAGTCCTTCTAATTATACTCCAATGGCATAGCTGGCAC [HSc-9.1]”, which Kd [1, 10] is on record?
A: 29.1 nM

Q: And the Kd [2]?
A: 1320 nM

Q: What about the Kd [3] of the same sequence?
A: 1550 nM

Q: What about the Kd [4] of the same sequence?
A: 28.5 nM

Q: And the Kd [5]?
A: 1240 nM

Q: And the Kd [6, 10]?
A: 14.8 nM

Q: And the Kd [7]?
A: 1110 nM

Q: What about the Kd [8] of the same sequence?
A: 1250 nM

Q: What about the Kd [9] of the same sequence?
A: 1000 nM

Q: With “GCAGCAGAGATAGACGCTAAGACCTCATAGTCCTTCTAATTATACTCCAATGGCATAGCTGGCAC [HSNat-9]” as the sequence, how does the Kd [1, 11] read?
A: 4650 nM

Q: What about the Kd [6, 11] of the same sequence?
A: > 10000 nM

Q: How did the Kd [1, 12] turn out when “GCAGCAGAGATAGACGCTAAGACCTCATAGTCCTTCTAATTATACTCCAATGGCATAGCTGGCAC [HSc-9]” was run?
A: 36 nM

Q: And the Kd [6, 12]?
A: 29.1 nM

Q: For “GCAGCAGAGATAGACGCTACCCCTTAATAAAAACATACGGTCCATTCCCGTCGTACGATTGATTG [Scr2]”, which Kd [1, 13] is on record?
A: 620 nM

Q: And the Kd [6, 13]?
A: 687 nM

Q: For “GCAGCAGAGATAGACGCTACCCCTTAATAAAAACATACGGTCCATTCCCGTCGTACGATTGATTG [Scr3]”, which Kd [1, 13] is on record?
A: 700 nM

Q: And the Kd [6, 13]?
A: 775 nM

Q: Which Kd [1, 13] does the source give for “GCAGCAGAGATAGACGCTATCGATGACTATAATTCCCATCTATCATCCAATGGCATAGCTGGCAC [Scr1]” here?
A: 560 nM

Q: What about the Kd [6, 13] of the same sequence?
A: 536 nM

Q: How did the Kd [1, 11] turn out when “GCAGCAGAGATAGACGCTATTCTCTAGACCTTCTAATTTACATACTCCAATGGCATAGCTGGCAC [HSNat-2]” was run?
A: > 5000 nM

Q: And the Kd [6, 11]?
A: > 10000 nM

Q: With “GCAGCAGAGATAGACGCTATTCTCTAGACCTTCTAATTTACATACTCCAATGGCATAGCTGGCAC [HSc-2]” as the sequence, how does the Kd ([1]; all A after nt 19 plus those marked A* are 7-phenylbutyl-7-deaza-dA, except none in 5' primer region (nt 1-19), printed A26 and later marked A*, 0.05% Tween 20, aptamers folded 95 °C 5 min then …) read?
A: 66 nM

Q: What about the Kd ([6]; error printed as 6 in Table 6, all A after nt 19 plus those marked A* are 7-phenylbutyl-7-deaza-dA, except none in 5' primer region (nt 1-19), printed A26 and later marked A*, 0.05% Tween 20, aptamers folded 95 °C 5 min then …) of the same sequence?
A: 245 nM
